Experimental data from patent US20180171024A1.
Values belong to the substance of their own block, whether it stands above or below them.

What was measured:
[1] = target: single-chain recombinant HLA-A2/WT1 126-134 complex (human); assay: SPR (ProteOn), biotinylated scHLA-A2/WT1 on NeutrAvidin, Fab as analyte; faster dissociation told in words
[2] = target: HLA-A2/WT1-S7 on T2 cells (human); assay: flow cytometry, peptide-loaded T2 cells (10^-4-10^-5 M)
[3] = target: HLA-A2/WT1-S6 on T2 cells (human); assay: as above
[4] = target: HLA-A2/WT1-S13 on T2 cells (human); assay: as above
[5] = target: HLA-A2/WT1-S22 on T2 cells (human); assay: as above
[6] = target: HLA-A2/WT1-S10 on T2 cells (human); assay: as above
[7] = target: HLA-A2/WT1-S11 on T2 cells (human); assay: as above
[8] = target: HLA-A2/WT1-S16 on T2 cells (human); assay: as above
[9] = target: HLA-A2 on other WT1 negative HLA-A2+ cells (other than 501, A498 and SKMEL; members not named); assay: flow cytometry on JVM-2 cells (WT1 mRNA -)
P68 … (Homo sapiens) = assay: flow cytometry, T2 cells loaded with 10^-4 M peptide; set-up: reference not given here
[10] = target: HLA-A2/Tyrosinase369-377 complex on cells (human); assay: as above; set-up: reference not given here
[11] = target: HLA-A2/WT1 126-134 complex on T2 cells (human); assay: flow cytometry, T2 cells loaded with 10^-4 M WT1 peptide
[12] = target: HLA-A2 on HLA-A2+/WT1+ BV173 cells (WT1 mRNA positive; WT1 126-134 peptide not detected by mass spectrometry of eluted HLA peptides); assay: flow cytometry on BV173 cells (WT1 mRNA +)
[13] = target: HLA-A2/PAP 112-120 complex on T2 cells (human); assay: flow cytometry, T2 cells loaded with 10^-4 M peptide
[14] = target: HLA-A2/MAGE-A4 230-239 complex on cells (human); assay: as above
[15] = target: HLA-A2/MAGE-A9 223-231 complex on T2 cells (human); assay: as above
[16] = target: HLA-A2/WT1 126-134 complex on T2 cells (human); assay: flow cytometry, T2 cells loaded with WT1 peptide 1x10e-4M
[17] = target: HLA-A2 on other WT1 negative HLA-A2+ cells (other than 501, A498 and SKMEL; members not named); assay: flow cytometry on IM-9 cells (WT1 mRNA -)
[18] = target: Unloaded T2 (Homo sapiens); assay: flow cytometry, unloaded T2 cells; set-up: reference not given here
[19] = target: HLA-A2 on HLA-A2+ cells that do not express WT1 (tumor cell lines, normal primary cells); assay: flow cytometry on A498 cells (WT1 mRNA -)
[20] = target: HLA-A2 on HLA-A2+/WT1+ SET2 cells (WT1 mRNA positive; WT1 126-134 peptide not detected by mass spectrometry of eluted HLA peptides); assay: flow cytometry on SET-2 cells (WT1 mRNA +)
[21] = target: HLA-A2 on HLA-A2+ cells that do not express WT1 (tumor cell lines, normal primary cells); assay: flow cytometry on SKMEL-5 melanoma cells (WT1 mRNA -)
[22] = target: HLA-A2 on other WT1 negative HLA-A2+ cells (other than 501, A498 and SKMEL; members not named); assay: flow cytometry on U266 cells (WT1 mRNA -)
[23] = target: HLA-A2/WT1 126-134 complex on T2 cells (human); assay: flow cytometry, T2 cells loaded with WT1 peptide 1x10e-5M
[24] = target: HLA-A2/WT1 126-134 complex on T2 cells (human); assay: flow cytometry, T2 cells loaded with WT1 1x10e-4M in DMSO
[25] = target: HLA-A2 on HLA-A2+ cells that do not express WT1 (tumor cell lines, normal primary cells); assay: flow cytometry on 501A melanoma cells (WT1 mRNA -)

Kd [1]: 0.2 µM
Substance: ESK1 TCRL Fab

MFI [2]: 3.1
MFI [3]: 5
MFI [4]: 1.1
MFI [5]: 1.1
MFI [6]: 1.4
MFI [7]: 1.1
MFI [8]: 1.1
MFI [9]: 1
MFI (P68 … (Homo sapiens)): 1
MFI [10]: 1
MFI [11]: 18
MFI [12]: 8.1
MFI [13]: 1.1
MFI [14]: 1.1
MFI [15]: 1
MFI [16]: 17.9
MFI [17]: 1.2
MFI [18]: 1
MFI [19]: 5.2
MFI [20]: 26.3
MFI [21]: 4.3
MFI [22]: 1.9
MFI [23]: 1.6
MFI [24]: 17.9
MFI [25]: 10.7
Substance: ESK1 TCR-like antibody (IgG)
